# Assay results as given in patent publication US12653863B2, “FGF21 compositions for treatment or prevention of neovascularization of the eye and methods therefor” (Children's Medical Center Corporation, priority 2017, dated 2026).
# Columns and labels:
# [1] = tested on: HRMEC; test: HRMEC wound healing and cell viability assays; type: cell-based; conditions: in vitro, FIG. 7C-7D
# [2] = tested on: 661W cells; test: 661W photoreceptor cells with paraquat-induced oxidative stress; type: cell-based; conditions: PQ-treated 661W, co-treatment with 500 ng/ml PF-05231023, perifosine 5 or 10 μM
# Protocol: Photoreceptors (661W) cell culture: Photoreceptor 661W cells were cultured at 37° Celsius, 5% CO2 in a humidified atmosphere in Dulbecco's modified Eagle's medium (DMEM, #1196502, Gibco) supplemented with 10% fetal bovine serum (#S12450, Atlanta Biologicals) and 1% antibiotic/antimycotic solution. An equal number of cells per well was plated on a 6-well dish. Oxidative stress was induced with 0.5 mM paraquat (PQ, Sigma, #856177) for 1 hour at 37° Celsius. The culture media were changed and the cells were treated with vehicle (PBS) or 500 ng/ml PF-05231023 for 24 hours. Cells were collected for protein and RNA.
# Real-time PCR: Retinas or 661W cells were lysed with QIAzol lysis reagent and incubated on ice for 15 minutes. 20% chloroform was added and incubated for 5 minutes at room temperature. […] Quantitative analysis of gene expression was generated using an Applied Biosystems 7300 Sequence Detection System with the SYBR Green Master mix kit and gene expression was calculated relative to Cyclophilin A ((5′-CAG ACG CCA CTG TCG CTT T-3′ (SEQ ID NO: 30); 5′-TGTCTTTGGAACTTTGTCTGCAA-3′(SEQ ID NO: 31)) (retinas) or β-actin ((5′-CGGTTCCGATGCCCTGAGGCTCTT-3′ (SEQ ID NO: 48), 5′-CGTCACACTTCATGATGGAATTGA-3′ (SEQ ID NO: 49)) (photoreceptor 661W cells) using the ΔΔCt method. Each sample was repeated in triplicate. […]
# [3] = tested on: hyperglycemic mouse neonates; test: streptozotocin (STZ)-induced hyperglycemic ROP mouse model; type: in vivo
# Excerpt: Hyperglycemia is a recently described risk factor for retinopathy of prematurity (ROP) in premature infants. In streptozotocin (STZ)-induced hyperglycemic ROP mouse model, retinal vascular development was confirmed as delayed. Specifically, FGF21 deficiency delayed normal retinal vascular network formation and worsened hyperglycemic ROP in such mice. Native (nFGF21) and long-acting FGF21 (PF-05231023) treatment were both observed to have promoted retinal vessel growth in hyperglycemic ROP. The protection of FGF21 observed was also confirmed as dependent upon adiponectin (APN).
# [4] = tested on: mice having oxygen-induced retinopathy; test: mouse oxygen-induced retinopathy (OIR), retinal whole mounts and retinal qPCR at P17; type: in vivo; conditions: WT OIR mice, i.p. daily P12-P16, P17 retinal whole mounts, vs vehicle
# Protocol: Oxygen-induced retinopathy: mice were exposed to 75% oxygen from P7 to P12. The mice were then returned to room air until P17 (Connor et al., 2009; Smith et al., 1994). High oxygen led to vessel loss and the relative hypoxia induced neovascularization which reached to maximum at P17 (Smith et al., 1994). Both genders of mouse pups were used with body weight ranging from 5.5 to 7 grams (Connor et al., 2009). The mice were randomly assigned to either native FGF21 (5 mg/kg, twice per day) or long-acting FGF21 (1 mg/kg PF-05231023) or phosphate buffered saline (PBS). The mice were intraperitoneally injected daily from P12 to P16. For the intra-vitreal injection of PF-05231023 (0.5 μl 10 μg/μl stock per eye) was delivered using 10 μl syringe with 35G needle (World Precision Instruments, Inc.) at P12. The contralateral eye was injected with vehicle control. At P17, retinal neovascularization was quantified (Connor et al., 2009; Smith et al., 1994). […] Retinal neovascularization was quantified as previously reported (Connor et al., 2009). Percentages of neovascularization were calculated by comparing the number of pixels in the neovascular areas with the total number of pixels in the retina. n is the number of eyes quantified. […]
# [5] = Huang et al., 2013; cited from earlier work
molecule,measurement,setting,value
O=C(COc1ccc(C(=O)c2ccccc2)cc1)NC1CCN(Cc2ccccc2)CC1 [AdipoRon],"endothelial cell function (wound healing, viability)",[1],inhibited endothelial cell function in vitro
CCCCCCCCCCCCCCCCCCOP(=O)([O-])OC1CC[N+](C)(C)CC1 [perifosine],induction of NRF2 expression by PF-05231023,[2],dose-dependently inhibited
"Native FGF21: native FGF21 (nFGF21), unmodified FGF21 with short half-life (protein, UniProt Q9NSA1 29-209, looked up) Fibroblast growth factor 21: HPIPDSSPLLQFGGQVRQRYLYTDDAQQTEAHLEIREDGTVGGAADQSPESLLQLKALKPGVIQILGVKTSRFLCQRPDGALYGSLHFDPEACSFRELLLEDGYNVYQSEAHGLPLHLPGNKSPHRDPAPRGPARFLPLPGLPPALPEPPGILAPQPPDVGSSDPLSMVGPSQGRSPSYAS",retinal vascular growth,[3],improved retinal vascular growth
same,retinal neovascularization,[4],did not affect neovascularization
same,half-life,[5],24 min
